Biological target: T1, human interleukin-18 (human, UniProt Q14116 37-193)
T1 construct: Immobilised on plates in the ELISAs; also called human IL-18; IL-18
T1 sequence (looked up): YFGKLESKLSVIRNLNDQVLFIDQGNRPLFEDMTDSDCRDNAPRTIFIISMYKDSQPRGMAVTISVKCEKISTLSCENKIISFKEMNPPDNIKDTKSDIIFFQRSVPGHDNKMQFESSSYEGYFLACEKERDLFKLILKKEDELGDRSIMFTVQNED
Assay: phage ELISA, scFv-presenting phage on immobilised human IL-18 (HSA as comparison), anti-M13 detection, A405
Description: ELISA for screening separated clones was carried out by immobilizing human IL-18 on an ELISA plate. Specifically, 2 μg/ml of human IL-18 and 2.5 μg/ml of human serum albumin (HSA) were put in a 40 μL/well ELISA plate (Nunc), allowed to stand for 16 hours at 4° C., and then immobilized on the plate. For blocking, 400 μL/well of PBS solution containing 0.5% BSA, 0.5% gelatin, and 5% skim milk was put in the ELISA plate, and then allowed to stand for 2 hours at 4° C.
Next, into the ELISA plate, 40 μL/well of sample solution containing an scFV-presenting phage was poured, and the mixture was allowed to react. Thereafter, the sample solution was removed, and the product was washed 5 times by using a cleaning liquid. Subsequently, to the immobilized scFv phage, a biotin-labeled anti-M13 monoclonal antibody (Pharmacia biotech) was added, and the mixture was allowed to react with an alkaline phosphatase (AP)-labeled anti-mouse IgG antibody serving as a secondary antibody. The reaction liquid was washed 5 times by using a cleaning liquid.

B1: human anti-human IL-18 scFv fragment h18-108 (scFv, V domains shown)
VH: QVQLVQSGAEVRRPGASVRVSCKASGYTFTSHYIHWVRQAPGQGLEWVAIINPSDGRTDYAQKFQGRVTVTRDTSASSVYMGISSLRSEDTAMYYCARTARGFSYATDWGQGTLVTVSS
VL: SYELTQPPSVSVSPGQTARITCSGDALPKKYAYWYQQKPGQAPVLVIYKDSERPSGIPERFSGSSSGTTVTLTISGVQAEDEADYYCQSADSSGTYVVFGGGTQLTVL
notes: Expressed in E. coli from pCANTAB5E and purified on anti-E tag antibody; By gel filtration 90% monomer, 10% dimer
B1: binds.
